Source: patent publication US20210338779A1, “THERAPEUTIC USE OF GLUCAGON AND COMBINATION INCLUDING THE SAME” (HANMI PHARM. CO., LTD, priority 2018, published 2021)
Positions of bridges follow the written chain, without caps; N, C: chain ends. Non-standard residues stand in square brackets, D forms with d. No end group written: not given here. Aib = CC(C)(N)C(=O)O

Tested on: not given
Test: not given
Conditions: in vivo; cited from earlier work

Row | Molecule | side-effects
1 | Contrave | cardiovascular side-effects

Same assay, conditions: reported; cited from earlier work

Row | Molecule | side-effects
2 | Cc1c(C(=O)NN2CCCCC2)nn(-c2ccc(Cl)cc2Cl)c1-c1ccc(Cl)cc1 [Rimonabant] | side-effect of central nervous system disorder
3 | CC(C)CC(N(C)C)C1(c2ccc(Cl)cc2)CCC1 (stereo not drawn) [Sibutramine] | cardiovascular side-effects

Same assay, conditions: when taken for one year; cited from earlier work

Row | Molecule | weight loss
4 | CCCCCCCCCCC[C@@H](C[C@@H]1OC(=O)[C@H]1CCCCCC)OC(=O)[C@H](CC(C)C)NC=O [Orlistat] | about 4 kg

Biological target: human glucagon receptor (human, UniProt P47871 26-477)
Sequence (P47871 26-477): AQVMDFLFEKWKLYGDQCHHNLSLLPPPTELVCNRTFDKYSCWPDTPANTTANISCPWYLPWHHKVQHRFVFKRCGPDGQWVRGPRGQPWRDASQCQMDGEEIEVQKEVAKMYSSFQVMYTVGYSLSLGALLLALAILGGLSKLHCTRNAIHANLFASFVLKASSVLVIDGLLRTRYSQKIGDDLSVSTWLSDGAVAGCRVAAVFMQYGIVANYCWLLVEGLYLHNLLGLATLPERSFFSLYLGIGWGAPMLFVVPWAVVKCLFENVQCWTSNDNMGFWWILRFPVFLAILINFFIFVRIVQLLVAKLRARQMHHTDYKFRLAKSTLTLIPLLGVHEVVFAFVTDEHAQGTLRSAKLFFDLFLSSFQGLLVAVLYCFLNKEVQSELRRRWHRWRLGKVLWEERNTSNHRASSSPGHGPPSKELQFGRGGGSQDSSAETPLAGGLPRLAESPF
Test: cell-based or functional assay
Conditions: not given

Row | Molecule | in vitro activity (%, relative to SEQ ID NO: 1); cAMP assay, from EC50 [%]
5 | Y[Aib]QGTFTSDYSKYLDSCDAQDFVQWLINT [glucagon derivative of SEQ ID NO: 8] | < 0.1
6 | HSQGTFTSDYSKYLDSCEAQDFVQWLMNT [glucagon derivative of SEQ ID NO: 5] | 0.3
7 | Y[Aib]QGTFTSDYSKYLDEKRCKEFVQWLMNT (lactam 16-20) [glucagon derivative of SEQ ID NO: 22] | 148
8 | Y[Aib]QGTFCSDYSKYLDSRRAQDFVQWLMNT [glucagon derivative of SEQ ID NO: 42] | 37.9
9 | HSQGTFTSDYSKYLDCERAQDFVQWLMNT [glucagon derivative of SEQ ID NO: 3] | 6.1
10 | Y[Aib]QGTFTSDYSKYLDECRAKEFVQWLMNT (lactam 16-20) [glucagon derivative of SEQ ID NO: 20] | 300
11 | Y[Aib]QGTFTSDYSKYCDEKRAKEFVQWLMNT (lactam 16-20) [glucagon derivative of SEQ ID NO: 23] | 76.8
12 | W[Aib]QGTFTSDYSKYLDECRAKDFVQWLMNT (lactam 16-20) [glucagon derivative of SEQ ID NO: 26] | 1
13 | HSQGTFTSDYSKYLDSCEADDFVQWLMNT [glucagon derivative of SEQ ID NO: 6] | < 0.1
14 | W[Aib]QGTFTSDYSKCLDERRAKDFVQWLMNT (lactam 16-20) [glucagon derivative of SEQ ID NO: 30] | 0.3
15 | Y[Aib]QGTFVSDYSKYLDERRAKDFVQWLMNTC (lactam 16-20) [glucagon derivative of SEQ ID NO: 40] | 40.8
16 | Y[Aib]QGTFTSDYSKYCDERRAKEFVQWLMNT (lactam 16-20) [glucagon derivative of SEQ ID NO: 35] | 17.7
17 | HSQGTFTSDYSKYLDCDRAQDFVQWLMNT [glucagon derivative of SEQ ID NO: 2] | 0.6
18 | Y[Aib]QGTFTSDYSKYLDEKRAKCFVQWLMNT (lactam 16-20) [glucagon derivative of SEQ ID NO: 25] | 46.9
19 | W[Aib]QGTFTSDYSKYCDERRAKEFVQWLMNT (lactam 16-20) [glucagon derivative of SEQ ID NO: 34] | 0.2
20 | SQGTFTSDYSKYLDECRAKEFVQWLMNT (lactam 15-19) [glucagon derivative of SEQ ID NO: 32] | 0.7
21 | YXQGTFTSDYSKYLDSRRAQDFVQWLMNT (X at position 2 = aminoisobutyric acid (Aib)) [glucagon derivative of SEQ ID NO: 33] | 108
22 | Y[Aib]QGTFTSDYSKYLDSCDADDFVVWLINT [glucagon derivative of SEQ ID NO: 10] | < 0.1
23 | Y[Aib]QGTFTSDCSKYLDSRRAQDFVQWLMNT [glucagon derivative of SEQ ID NO: 43] | 1.6
24 | Y[Aib]QGTFVSDCSKYLDERRAKDFVQWLMNT (lactam 16-20) [glucagon derivative of SEQ ID NO: 39] | 3.7
25 | Y[Aib]QGTFCSDYSKYLDERRAKDFVQWLMNT (lactam 16-20) [glucagon derivative of SEQ ID NO: 41] | 45.2

Row | Molecule | in vitro activity (%, relative to SEQ ID NO: 1); cAMP assay, from EC50 [%]
26 | Y[Aib]QGTFVSDYSKYLDECRAKDFVQWLMNT (lactam 16-20) [glucagon derivative of SEQ ID NO: 27] | 93.6
27 | Y[Aib]QGTFTSDYSKYLDCRRAQVFVQWLMRT [glucagon derivative of SEQ ID NO: 16] | 4.2
28 | Y[Aib]QGTFTSDYSKYLDCKRAKEFVQWLMNT (lactam 17-21) [glucagon derivative of SEQ ID NO: 31] | 6.3
29 | Y[Aib]QGTFTSDYSKYLCEKRAQDFVVWLMNT [glucagon derivative of SEQ ID NO: 15] | 1.1
30 | YSQGTFTSDYSKYLDSCEADDFVQWLMNT [glucagon derivative of SEQ ID NO: 7] | < 0.1
31 | Y[Aib]QGTFTSDYSKYLDEKCAKEFVQWLMNT (lactam 16-20) [glucagon derivative of SEQ ID NO: 21] | 57.8
32 | Y[Aib]QGTFTSDYSKYLCEKRAKEFVQWLMNT (lactam 16-20) [glucagon derivative of SEQ ID NO: 19] | 12.1
33 | Y[Aib]QGTFTSDYSKCLDEKRAKEFVQWLMNT (lactam 16-20) [glucagon derivative of SEQ ID NO: 24] | 58
34 | Y[Aib]QGTFTSDYSKYLDCKRAKEFVQWLMNT [glucagon derivative of SEQ ID NO: 14] | 18.1
35 | Y[Aib]QGTFTSDYSKCLDERRAKDFVQWLMNT (lactam 16-20) [glucagon derivative of SEQ ID NO: 29] | 61.3
36 | Y[Aib]QGTFTSDYSKYLDEKCAKEFVQWLMNT [glucagon derivative of SEQ ID NO: 11] | 4.6
37 | Y[Aib]QGTFTSDYSKYLDCVRAQDFVQWLMRT [glucagon derivative of SEQ ID NO: 17] | 23.2
38 | W[Aib]QGTFVSDYSKYLDECRAKDFVQWLMNT (lactam 16-20) [glucagon derivative of SEQ ID NO: 28] | < 0.1
39 | Y[Aib]QGTFTSDYSKYLDSRRACDFRLWLMNT [glucagon derivative of SEQ ID NO: 18] | < 0.1
40 | YXQGTFTSDYSKYLDSRRAQDFVQWLMNTC (X at position 2 = aminoisobutyric acid (Aib)) [glucagon derivative of SEQ ID NO: 44] | 75.4
41 | Y[Aib]QGTFTSDCSKYLDERRAKEFVQWLMNT (lactam 16-20) [glucagon derivative of SEQ ID NO: 36] | 9.9
42 | HSQGTFTSDYSKYLDSCDAQDFVQWLMNT [glucagon derivative of SEQ ID NO: 4] | < 0.1
43 | Y[Aib]QGTFCSDYSKYLDERRAKEFVQWLMNT (lactam 16-20) [glucagon derivative of SEQ ID NO: 38] | 167
44 | Y[Aib]QGTFTSDYSKYLDSCDAQDFVVWLINT [glucagon derivative of SEQ ID NO: 9] | < 0.1
45 | Y[Aib]QGTFTSDYSKYLDEKRAKEFVQWLMNTC (lactam 16-20) [glucagon derivative of SEQ ID NO: 12] | 56.3
